In PMC3351694 (Virology, 2012):
Where two headings read alike, the source gives them in different places.

Columns and labels:
Assay in all cases: SEC
[1] = target: T1, bacteriophage P22 coat protein (bacteriophage P22, UniProt P26747 1-430)
[2] = target: T1, bacteriophage P22 coat protein; remark: listed apart in the source
[3] = target: T1, bacteriophage P22 coat protein; remark: listed apart in the source

T1 sequence (P26747 whole entry): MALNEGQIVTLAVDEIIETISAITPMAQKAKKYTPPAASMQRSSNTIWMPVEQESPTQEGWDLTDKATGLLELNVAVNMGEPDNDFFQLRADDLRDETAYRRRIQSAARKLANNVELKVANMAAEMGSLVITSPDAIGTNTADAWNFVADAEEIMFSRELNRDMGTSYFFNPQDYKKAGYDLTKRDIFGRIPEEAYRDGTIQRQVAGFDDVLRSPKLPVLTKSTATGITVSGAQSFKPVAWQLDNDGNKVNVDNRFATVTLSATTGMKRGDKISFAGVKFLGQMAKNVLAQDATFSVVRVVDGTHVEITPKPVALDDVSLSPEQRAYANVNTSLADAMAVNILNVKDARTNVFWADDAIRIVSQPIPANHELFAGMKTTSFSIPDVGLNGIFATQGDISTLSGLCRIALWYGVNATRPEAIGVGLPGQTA

B1: bacteriophage P22 scaffolding protein (natural protein, UniProt P26748 1-303, looked up)
chain: MEPTTEIQATEDLTLSGDHAAASADSLVVDNANDNAGQEEGFEIVLKDDETAPKQDPAKNAEFARRRIERKRQRELEQQMEAVKRGELPESLRVNPDLPPQPDINAYLSEEGLAKYDYDNSRALAAFNAANTEWLMKAQDARSNAVAEQGRKTQEFTQQSAQYVEAARKHYDAAEKLNIPDYQEKEDAFMQLVPPAVGADIMRLFPEKSAALMYHLGANPEKARQLLAMDGQSALIELTRLSERLTLKPRGKQISSAPPADQPITGDVSAANKDAIRKQMDAAASKGDVETYRKLKAKLKGIR
stoichiometry N [1]: ~360 scaffolding protein sites per PC
midpoint of the binding fit (K's, input S/C ratio) [2]: 0.88 input S/C molar ratio
stoichiometry N [2]: 294 ± 33 scaffolding proteins per PC
1/KS (dissociation constant of scaffolding protein for PC), Snum 300 [3]: 0.77 ± 0.7 µM
1/KS (dissociation constant of scaffolding protein for PC), Snum 360 [3]: 1.29 ± 0.95 µM
1/KS (dissociation constant of scaffolding protein for PC), Snum 420 [3]: 1.88 ± 1.25 µM
